Experimental data as given in publication doi:10.1101/2024.11.20.624486.

Molecular target: GST-HktR (Pseudomonas syringae pv. actinidiae M228)
Experiment: MST

RpoD-His6 (natural protein) gave a Kd of 1790 nM.
